Data set [1] deals with Fab BL3-6 S97N (synthetic), PDB:6B14_1+PDB:6B14_2. In words: filter binding.
In data set [2] the test system is Fab clone 1 (synthetic), PDB:6B14_1+PDB:6B3K_2. In words: filter binding.
For data set [3], the system named is Fab clone 10 (Fab 10) (synthetic), PDB:6B14_1+PDB:6B3K_2. Nature of the data set: filter binding.
The test system of data set [4] is Fab clone 11 (synthetic), PDB:6B14_1+PDB:6B3K_2. In words: filter binding.
Data set [5] deals with Fab clone 12 (synthetic), PDB:6B14_1+PDB:6B3K_2. In words: filter binding.
The subject of data set [6] is Fab clone 13 (synthetic), PDB:6B14_1+PDB:6B3K_2. In words: filter binding.
For data set [7], the system named is Fab clone 14 (synthetic), PDB:6B14_1+PDB:6B3K_2. In words: filter binding.
The test system of data set [8] is Fab clone 15 (synthetic), PDB:6B14_1+PDB:6B3K_2. In words: filter binding.
The test system of data set [9] is Fab clone 17 (synthetic), PDB:6B14_1+PDB:6B3K_2. In words: filter binding.
In data set [10] the test system is Fab clone 18 (synthetic), PDB:6B14_1+PDB:6B3K_2. In words: filter binding.
The subject of data set [11] is Fab clone 3 (Fab 3) (synthetic), PDB:6B14_1+PDB:6B3K_2. Nature of the data set: filter binding.
Data set [12] deals with Fab clone 4 (synthetic), PDB:6B14_1+PDB:6B3K_2. Nature of the data set: filter binding.
Data set [13] relates to Fab clone 5 (synthetic), PDB:6B14_1+PDB:6B3K_2. Nature of the data set: filter binding.
Data set [14] deals with Fab clone 6 (synthetic), PDB:6B14_1+PDB:6B3K_2. In words: filter binding.
Data set [15] concerns Fab clone 9 (synthetic), PDB:6B14_1+PDB:6B3K_2. In words: filter binding.
Data set [16] deals with Fab BL3-6 (synthetic (humanized Fab4D5 framework phage library)), PDB:6B14_1+PDB:6B3K_2. In words: filter binding.
The subject of data set [17] is Fab clone 2 (synthetic), PDB:6B14_1+PDB:6B3K_2. In words: filter binding.
Data set [18] relates to Fab BL3-6 (synthetic (humanized Fab4D5 framework phage library)), PDB:6B14_1+PDB:6B3K_2. Nature of the data set: hydroxyl-radical footprinting.

With “GGCGACCAUGGAAACACCAUGGUCGC [WT-RNA HP (WT BL3-6 HP)]”, the dissociation constant (Kd) in [1] came to 13 nM; in data set [2] it was 29 nM; in data set [3] it was 28 nM; in data set [4] it was 13 nM; in [5], 17 nM; in data set [6], 25 nM. For the same sequence, the dissociation constant Kd in data set [7] came to 58 nM; in [8], 17 nM; in data set [9], 21 nM; in data set [10], 22 nM; in [11], 25 nM; in [12], 28 nM. Further, the equilibrium dissociation constant (Kd) in data set [13] stood at 28 nM; in data set [14] it was 52 nM; in [15], 67 nM.
Turning to “GUCCAGUAGGAACACUAUACUACUGGAUAAUCAAAGACAAAUCUGCCCGAAGGGCUUGAGAACAUCGAAACACGAUGCAGAGGUGGCAGCCUCCGGUGGGUUAAAACCCAACGUUCUCAACAAUAGUGA [WT-BLP]”, the Kd in data set [16] is 120 nM; in [1] it was 5 nM; in data set [2] it was 26 nM; in data set [3] it was 30 nM; in data set [4] it was 37 nM; in data set [5], 37 nM. For the same sequence, the Kd was found to be 36 nM in data set [6]; 45 nM in data set [7]; 34 nM in data set [8]; 42 nM in data set [9]; 51 nM in [10]; 50 nM in data set [17]. Also, the Kd was determined as 28 nM in data set [11]; 29 nM in data set [12]; 20 nM in data set [13]; 54 nM in data set [14]; 66 nM in [15].
For “UGCGACCAUGGUGAGACCCGCCAUGGUCGC [N9RNA1 HP (AM HP)]”, the dissociation constant Kd came out at 9 nM in [1]; 11 nM in [2]; 9 nM in [3]; 9 nM in [4]; 7 nM in [5]; 11 nM in data set [6]. The equilibrium dissociation constant (Kd) turned out to be 10 nM in data set [8]; 8 nM in data set [9]; 9 nM in data set [10]; 10 nM in data set [17]; 9 nM in data set [11]; 11 nM in data set [12]. Further, the Kd stood at 8 nM in data set [13], 7 nM in data set [14], 13 nM in [15] and 30 nM in [18].

What is called Kd is the constant that tells how readily two partners part at equilibrium. Low values mean tighter binding, high ones weaker binding.

For the origin of these results see paper PMC5861428.
